Measurements taken from patent US8563516B2, “Foxp3 peptide vaccine” (OncoTherapy Science, Inc., priority 2007, dated 2013).
Entries after “also recorded” stand apart in the source; their conditions may differ.

Experiments:
[1] = test system: peptide pulsed T2 cells; experiment: CTL line induced with Foxp3-9-252-9V against peptide-pulsed T2 cells; format: cell-based, human; details: FIG. 7D, listed as Foxp3-9-252-9V
Protocol: (§1) In FIG. 7C CTLs could be induced by stimulation with Foxp3-9-252 substitutions targeted HLA-A2 molecule. CTLs for all substituted peptides targeted HLA-A2 molecule were generated in the way as described in “Materials and Methods”. […] CTL line induced with Foxp3-9-252-9V peptide was used as responder cells. T2 cells incubated with Foxp3-9-252-9V (-solid circle-) or Foxp3-9-252-WT (-open circle-) peptide and without any peptide (-open square-) were used as stimulator cells in this assay (1×10^4 cells/well).
(§2) On the other hand, the present inventers attempted the induction of CTLs using all substitutions restricted HLA-A*0201 including Foxp3-9-252-9V peptide. […] After CTL line induced by stimulation with Foxp3-9-252-9V was established by in vitro expansion, the CTL activity was determined by using stimulator cells pulsed with Foxp3-9-252-WT or Foxp3-9-252-9V peptide.

[2] = molecular target: T1, HLA-A2 molecule (Homo sapiens, UniProt P04439, D140Y/D185E/D98H/E176V/E277Q/G131W/G231S/I119V/I121R/I166T/I218V/L300P/L318F/N151K/N90K/P208A/P217A/Q86G/Q94H/R138H/R169H/T345S); experiment: CTL induction with Foxp3-9-252 substitutions restricted HLA-A*0201; format: cell-based; details: FIG. 7C; for IFN-gamma production compared with the control: positive wells
T1 construct: peripheral blood mononuclear cells (PBMCs) isolated from normal volunteer (HLA-A*2402 and/or HLA-A*0201); endogenous in cells; host or cells: monocyte-derived dendritic cells of HLA-A*0201 volunteers; T2 cells as stimulators in the read-out
Protocol: as §1
Monocyte-derived dendritic cells (DCs) were used as antigen-presenting cells (APCs) to induce CTL responses against peptides presented on HLA. DCs were generated in vitro as described elsewhere (Horiguchi S. et al. Cancer Res. 59:2950-6). Specifically, peripheral blood mononuclear cells (PBMCs) isolated from normal volunteer (HLA-A*2402 and/or HLA-A*0201) with Ficoll-Plaque (Pharmacia) solution were separated by adherence to plastic tissue culture dish (Becton Dickinson) so as to enrich them for the monocyte fraction. The monocyte-enriched population was cultured in the presence of 1000 U/ml of GM-CSF (R&D System) and 1000 U/ml of IL-4 (R&D System) in AIM-V medium (Invitrogen) containing 2% heat-inactivated autologous serum (AS). After 7 days in the culture, the cytokine-generated DCs were pulsed with 20 mcg/ml of the synthesized peptides in the presence of 3 mcg/ml of beta2-microglobulin for 4 hrs at 20 degrees C. in AIM-V medium. These peptide-pulsed DCs were then inactivated with mitomycin C (MMC) (30 mcg/ml for 30 mins) and mixed at a 1:20 ratio with autologous CD8+ T cells, obtained by positive selection with CD8 Positive Isolation Kit (Dynal). These cultures were set up in 48-well plates (Corning); each well contained 1.5×10^4 peptide-pulsed DCs, 3×10^5 CD8+ T cells and 10 ng/ml of IL-7 (R&D System) in 0.5 ml of AIM-V/2% AS. Three days later, these cultures were supplemented with IL-2 (CHIRON) to a final concentration of 20 IU/ml. On day 7 and 14, the T cells were further restimulated with the peptide-pulsed autologous DCs. The DCs were prepared each time through the same procedure described above. CTL activity was tested against peptide-pulsed A24LCL cells or T2 cells after the 3rd round of peptide stimulation on day 21.
(§3) To examine the specific CTL activity, IFN-gamma ELISPOT assay and IFN-gamma ELISA were performed. Briefly, peptide-pulsed A24-LCL, T2 cell (1×10^4/well) or the cells endogenously expressing Foxp3 and HLA molecule was prepared as a stimulator cells. Cultured CTL lines in 48 wells were used as a responder cells. IFN-gamma ELISPOT assay and IFN-gamma ELISA were performed under manufacture procedure.
as §2

[3] = test system: peptide pulsed T2 cells; experiment: IFN-gamma ELISPOT: CTL line induced with Foxp3-9-252-WT against T2 cells pulsed with substituted peptide; format: cell-based, human; details: FIG. 7A, listed as Foxp3-9-252-9V
Protocol: IFN-gamma ELISPOT assay was performed using CTL line induced with Foxp3-9-252-WT peptide as responder cells and T2 cells pulsed Foxp3-9-252-WT or Foxp3-9-252-9V peptide as stimulator cells, respectively. T2 cells without peptide pulse were prepared as control. […] IFN-gamma ELISA assay was performed using CTL line induced with Foxp3-9-252-WT peptide as responder cells (1×10^5 cells/well) and Foxp3-9-252-WT (-solid circle-), Foxp3-9-252-9V (-open circle-) or HIV-A02 (-solid triangle-) peptide pulsed T2 cells as stimulator cells (1×10^4 cells/well). Peptide pulse of stimulator cells was conducted at 37 degree Celsius for 2 hours in each kind of peptide and peptide concentration.
as §3
And then the present inventers examined whether peptide-pulsed stimulator cells using these substitutions were recognized by CTLs generated with Foxp3-9-252-WT peptide.

Sequence: KLSAMQAHV (peptide vaccine) [SEQ ID NO 95]
- recognition of Foxp3-9-252-WT pulsed stimulator cells by CTLs induced with substituted peptide [1]: recognized stimulator cells pulsed Foxp3-9-252-WT peptide as equal to that pulsed Foxp3-9-252-9V peptide; also recorded: recognize stimulator cells coated with Foxp3-9-252-WT peptide
- CTL induction by stimulation with substituted peptide [2]: CTLs were induced
- IFN-gamma production compared with the control ([2]; listed as Foxp3-9-252-9V): showed IFN-gamma production
- IFN-gamma production compared with the control ([2]; listed as Foxp3-A02-9-252-9V): peptide-dependent IFN-gamma production
- IFN-gamma production of Foxp3-9-252-WT induced CTLs against peptide pulsed T2 cells [3]: produced IFN-gamma; also recorded: recognize the cells presenting Foxp3-9-252-9V peptide on HLA-A2 molecule
